In paper PMC6004577 (Molecular Biology of the Cell, 2018):

What was measured:
[1] = biological target: the molecule itself; assay: SEC
[2] = biological target: the molecule itself; assay: AUC

B1: α-mDelNT, N-terminal half of mouse α-Delphilin (aa 1-558) (domain or fragment, UniProt Q0QWG9-2 1-558, looked up)
chain: MSCLGIFIPKKHRARFDEVVSQGLLGKLCRARRAQGAQRLRRSRSEERPERLLVSTRASAAPRRPDEPPPRKATSLLGGRTGPGGPRRTVRVYKGNKSFGFTLRGHGPVWIESVLPGSPAENASLKSGDRILFLNGLDMRNCSHDKVVSMLQGSGAMPTLVVEEGPVPFASDSDSLDSPTRASALTSLQWVADILPSSIRVQGRTFSQQLDHLLTPPERYGVCRALERFFQHRNIDTLIVDVYPVLDTPAKQVLWQFLYQLLTYEEQELCQEKIACFLGYTAMTEPESSLDLEPESTPEPTPEPQPRSSLRASSMCRRSLRSQGLETSLSCGPGDCPEMPLPLIPGERQAGDGTSLPETPNPKMMSAVYAELESRLNSSFKGKIGTMSKSRASPPVPSLVGTSGPRTLSGVSWPSDRLLPSPCYDPLCSGGLASPSSSESHPYASLDSSRAPSPQPGLGSIHADSPPSPDPIRPPSRRKLFAFSRPVRSRDTDRFLDALSEQLGPRLSIVDDFLTPENDYEEMSFHDDQGSFVTNERSSASECVSSSEEGSSLTYSSI
**Q.** Which “stoichiometry N” value [1] does the source give for B1 here?
**A.** 7 ± 1 subunits

**Q.** What about the “stoichiometry N” value [2] of the same protein?
**A.** 6
